Laboratory results reported in article PMC12572374, “Regulation of ADP-ribosyltransferase activity by ART domain dimerization in PARP15” (Nature Communications, 2025).

How the values were obtained:
PARP15 [1] = target: T1, PARP15 (Homo sapiens, UniProt Q460N3); assay: ITC; also HDX-MS; assay type: binding
T1 construct: ART domain, Asn481-Ala678
T1 sequence (Q460N3 481-678): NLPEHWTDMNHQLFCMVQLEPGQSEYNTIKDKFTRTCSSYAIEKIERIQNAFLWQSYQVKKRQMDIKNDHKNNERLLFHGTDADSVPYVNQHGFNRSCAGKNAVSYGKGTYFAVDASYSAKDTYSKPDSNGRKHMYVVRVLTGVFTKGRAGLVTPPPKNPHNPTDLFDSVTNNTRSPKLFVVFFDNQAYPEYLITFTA

PARP15 [2] = target: T2, PARP15 (Homo sapiens, UniProt Q460N3, R576E); assay: ITC; also HDX-MS; assay type: binding
T2 construct: ART domain, Asn481-Ala678
T2 sequence (Q460N3 481-678 R576E): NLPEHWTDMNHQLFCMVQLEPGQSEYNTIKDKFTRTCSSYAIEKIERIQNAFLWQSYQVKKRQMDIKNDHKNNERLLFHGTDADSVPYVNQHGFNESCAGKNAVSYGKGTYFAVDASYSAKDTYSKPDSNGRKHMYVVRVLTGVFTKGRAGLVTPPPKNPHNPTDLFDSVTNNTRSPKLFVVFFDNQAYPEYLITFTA

PARP15 [3] = target: T2, PARP15; assay: X-ray crystal structure; also nanoDSF thermal shift; assay type: binding
PARP15 [4] = target: T3, PARP15 (Homo sapiens, UniProt Q460N3, R576D); assay: nanoDSF thermal shift at […] ligand; assay type: binding
T3 construct: ART domain, Asn481-Ala678
T3 sequence (Q460N3 481-678 R576D): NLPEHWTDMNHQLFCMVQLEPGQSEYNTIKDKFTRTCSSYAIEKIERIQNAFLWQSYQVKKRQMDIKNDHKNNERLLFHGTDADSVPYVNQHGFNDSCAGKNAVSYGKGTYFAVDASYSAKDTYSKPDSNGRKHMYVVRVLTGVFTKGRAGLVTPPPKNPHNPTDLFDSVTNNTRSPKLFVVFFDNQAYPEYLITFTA

PARP10 = target: T4, PARP10 (Homo sapiens, UniProt Q53GL7); assay: auto-MARylation assay with purified enzyme (MacroGreen overlay); assay type: biochemical
T4 construct: ART domain, Asn819-Val1007
T4 sequence (Q53GL7 819-1007): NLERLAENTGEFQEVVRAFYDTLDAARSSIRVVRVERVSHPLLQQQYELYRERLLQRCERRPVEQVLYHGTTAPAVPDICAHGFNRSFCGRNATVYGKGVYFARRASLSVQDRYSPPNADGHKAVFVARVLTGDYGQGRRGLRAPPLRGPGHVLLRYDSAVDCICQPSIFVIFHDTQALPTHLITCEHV

[5] = target: T5, human PARP15 ART domain (Asn481-Ala678), wild type (human) (UniProt Q460N3)
T5 sequence: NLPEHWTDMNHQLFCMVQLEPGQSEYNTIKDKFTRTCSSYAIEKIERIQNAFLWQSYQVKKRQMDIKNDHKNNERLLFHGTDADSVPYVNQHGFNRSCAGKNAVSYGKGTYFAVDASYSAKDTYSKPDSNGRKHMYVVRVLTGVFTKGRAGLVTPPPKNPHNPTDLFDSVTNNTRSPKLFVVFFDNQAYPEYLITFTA

[6] = target: the molecule itself; assay: SEC-MALS; SEC-RALS/LALS (OMNISEC), Superdex 200 Increase 10/300 GL; 120 µl at 0.75 mg/ml PARP15 constructs, 0.35 mg/ml PARP14 ART, 0.65 mg/ml PARP10 ART; 50 mM HEPES pH 7.5, 300 mM NaCl, 1 mM TCEP
[7] = target: the molecule itself; assay: AUC; sedimentation velocity at 0.5 µM ART domain, 58,000 rpm for 5 h, measured at 220 nm, no NAD+; discrete model genetic algorithm (DMGA) analysis; dimer to monomers
[8] = target: the molecule itself; assay: AUC; sedimentation velocity, 0.5 µM PARP15 ART, 58,000 rpm, measured at 220 nm; Discrete Model Genetic Algorithm fit, 100 Monte Carlo iterations; no NAD+ treatment; dimer to monomers
[9] = target: the molecule itself; assay: AUC; sedimentation velocity at 9 µM protein, auto-MARylated and unmodified ART; 20 mM sodium phosphate pH 7, 150 mM NaCl; van Holde-Weischet analysis
[10] = target: the molecule itself; assay: HDX-MS; 2 mg/ml m2-ART in 50 mM TBS pH 7.4, labelling 0-9000 s at 20 °C

What does the source list for Nc1ncnc2c1ncn2[C@@H]1O[C@H](C(=O)N2CCN(CC(=O)Nc3cccc4c3CNC4=O)CC2)[C@@H](O)[C@H]1O [EB-47]?
Kd (PARP15 [1]): 24 µM; Kd (PARP15 [2]): 47 µM

Which results are given for NC(=O)c1cccc(N)c1 [3-aminobenzamide]?
X-ray crystal structure; also nanoDSF thermal shift (PARP15 [3]): we crystallized the monomeric R576E mutant in complex with the nicotinamide analog 3-aminobenzamide (3AB); nanoDSF thermal shift at 1 mM ligand (PARP15 [4]): thermal stabilities and ligand-induced Tm-shifts indicated they were properly folded

How did the “auto-MARylation assay with purified enzyme (MacroGreen overlay)” value (PARP10) turn out when NC(=O)c1ccc[n+]([C@@H]2O[C@H](COP(=O)([O-])OP(=O)(O)OC[C@H]3O[C@@H](n4cnc5c(N)ncnc54)[C@H](O)[C@@H]3O)[C@@H](O)[C@H]2O)c1 [NAD+] was run?
Its value is “PARP10 ART domain auto-modification increased in a roughly linear fashion over the entire concentration range”.

B1: PARP15 ART domain (Asn481-Ala678) H559Y, catalytically inactive (domain or fragment)
chain: NLPEHWTDMNHQLFCMVQLEPGQSEYNTIKDKFTRTCSSYAIEKIERIQNAFLWQSYQVKKRQMDIKNDHKNNERLLFYGTDADSVPYVNQHGFNRSCAGKNAVSYGKGTYFAVDASYSAKDTYSKPDSNGRKHMYVVRVLTGVFTKGRAGLVTPPPKNPHNPTDLFDSVTNNTRSPKLFVVFFDNQAYPEYLITFTA
With B1 as the molecule, how does the MARylation of plate-bound PARP15 macrodomain-2 by 250 nM wild-type ART with increasing H559Y (2-fold dilution series from 2 µM), MacroGreen overlay [5] read?
Its MARylation of plate-bound PARP15 macrodomain-2 by 250 nM wild-type ART with increasing H559Y (2-fold dilution series from 2 µM), MacroGreen overlay is 500 nM.

B2: human PARP15 ART domain (Asn481-Ala678), wild type (domain or fragment, UniProt Q460N3 481-678, looked up)
chain: NLPEHWTDMNHQLFCMVQLEPGQSEYNTIKDKFTRTCSSYAIEKIERIQNAFLWQSYQVKKRQMDIKNDHKNNERLLFHGTDADSVPYVNQHGFNRSCAGKNAVSYGKGTYFAVDASYSAKDTYSKPDSNGRKHMYVVRVLTGVFTKGRAGLVTPPPKNPHNPTDLFDSVTNNTRSPKLFVVFFDNQAYPEYLITFTA
notes: PARP15, human, ADP-ribosyltransferase (ART) domain, residues Asn481-Ala678; numbers count on the canonical isoform (isoform 1); cDNA in pNIC-Bsa4 (GenBank EF198106 is the vector); also called PARP15 ART WT; WT PARP15; source: E. coli BL21(DE3), purified (HiTrap TALON, Superdex 75 SEC)
Which “stoichiometry N” value [6] does the source give for B2 here?
Its value is 2.

And the Kd [7]?
Its Kd is 0.313 µM.

B3: human PARP15 ART domain (Asn481-Ala678), wild type (domain or fragment, UniProt Q460N3 481-678, looked up)
chain: NLPEHWTDMNHQLFCMVQLEPGQSEYNTIKDKFTRTCSSYAIEKIERIQNAFLWQSYQVKKRQMDIKNDHKNNERLLFHGTDADSVPYVNQHGFNRSCAGKNAVSYGKGTYFAVDASYSAKDTYSKPDSNGRKHMYVVRVLTGVFTKGRAGLVTPPPKNPHNPTDLFDSVTNNTRSPKLFVVFFDNQAYPEYLITFTA
notes: PARP15 (protein mono-ADP-ribosyltransferase PARP15), human, ART domain, residues Asn481-Ala678 of the canonical isoform (isoform 1); No tag cleavage is described; not copied; also called PARP15 ART WT; WT PARP15; source: E. coli BL21(DE3), purified (TALON IMAC, Superdex 75 SEC)
Which Kd [8] does the source give for B3 here?
Its Kd is 0.313 µM.

B4: auto-MARylated PARP15 ART domain (Asn481-Ala678) (domain or fragment, human, UniProt Q460N3 481-678, looked up)
chain: NLPEHWTDMNHQLFCMVQLEPGQSEYNTIKDKFTRTCSSYAIEKIERIQNAFLWQSYQVKKRQMDIKNDHKNNERLLFHGTDADSVPYVNQHGFNRSCAGKNAVSYGKGTYFAVDASYSAKDTYSKPDSNGRKHMYVVRVLTGVFTKGRAGLVTPPPKNPHNPTDLFDSVTNNTRSPKLFVVFFDNQAYPEYLITFTA
modifications: mono-ADP-ribosylated by auto-modification with NAD+; sites not stated
notes: PARP15, human, ART domain, residues Asn481-Ala678 of the canonical isoform; same construct as m1 after auto-MARylation; source: E. coli BL21(DE3), purified; 40 µM incubated with 100 µM NAD+ for 1 h, NAD+ removed on a desalting column
Does B4 bind [9]?
Result: binds

B5: PARP15 macrodomain-2 + ART domain construct (m2-ART; Gly287-Ala678) (domain or fragment, human, UniProt Q460N3 287-678, looked up)
chain: GTVSKPCFTAYEMKIGAITFQVATGDIATEQVDVIVNSTARTFNRKSGVSRAILEGAGQAVESECAVLAAQPHRDFIITPGGCLKCKIIIHVPGGKDVRKTVTSVLEECEQRKYTSVSLPAIGTGNAGKNPITVADNIIDAIVDFSSQHSTPSLKTVKVVIFQPELLNIFYDSMKKRDLSASLNFQSTFSMTTCNLPEHWTDMNHQLFCMVQLEPGQSEYNTIKDKFTRTCSSYAIEKIERIQNAFLWQSYQVKKRQMDIKNDHKNNERLLFHGTDADSVPYVNQHGFNRSCAGKNAVSYGKGTYFAVDASYSAKDTYSKPDSNGRKHMYVVRVLTGVFTKGRAGLVTPPPKNPHNPTDLFDSVTNNTRSPKLFVVFFDNQAYPEYLITFTA
notes: PARP15, human, macrodomain-2 and ART domain, residues Gly287-Ala678 of the canonical isoform (isoform 1); synthetic gene, codon optimised for E. coli, in pET151/TOPO; also called PARP15 m2-ART; PARP15 isoform-2 (m2-ART); source: E. coli BL21(DE3), purified (HiTrap TALON, Superdex 200 SEC, HiTrap SP XL cation exchange)
Does B5 bind [10]?
Result: binds
